Experimental data from patent US20240279328A1 (Johns Hopkins, published 2024).
Changes are numbered by the printed parent chain.

B1: 602 antibody (wild type anti-human IL-2 antibody) (antibody, mouse IgG2a, kappa)
heavy: DEVQLQESGPGLVAPSQSLSITCTVSGFSLTNYDISWIRQPPGKGLEWLGVIWTGGGTNYNSGFMSRLSITKDNSKSQVFLKMNSLQTDDTAIYYCVRQGRTPYWGQGTLVTVSAAKTTAPSVYPLAPVCGDTTGSSVTLGCLVKGYFPEPVTLTWNSGSLSSGVHTFPAVLQSDLYTLSSSVTVTSSTWPSQSITCNVAHPASSTKVDKKIEPRGPTIKPCPPCKCPAPNLLGGPSVFIFPPKIKDVLMISLSPIVTCVVVDVSEDDPDVQISWFVNNVEVHTAQTQTHREDYNSTLRVVSALPIQHQDWMSGKEFKCKVNNKDLPAPIERTISKPKGSVRAPQVYVLPPPEEEMTKKQVTLTCMVTDFMPEDIYVEWTNNGKTELNYKNTEPVLDSDGSYFMYSKLRVEKKNWVERNSYSCSVVHEGLHNHHTTKSFSRTPGK
light: AGSDIQVTQSPSSLSVSLGDRVTITCKASKDIYNRLAWYQQKPGNAPRLLISGATSLETGVPSRFSGSGSGKDYTLTITSLQTEDVATYYCQQFWGTPYTFGGGTKLEIKRADAAPTVSIFPPSSEQLTSGGASVVCFLNNFYPKDINVKWKIDGSERQNGVLNSWTDQDSKDSTYSMSSTLTLTKDEYERHNSYTCEATHKTSTSPIVKSFNRNEC
B2: 602 M1 glycovariant (N-glycosylation site inserted in the heavy chain) (antibody, mouse IgG2a, kappa)
heavy: B1 heavy with Q107N
light: B1 light
modifications: inserted N-linked glycosylation site (position shown only in a drawing)
notes: One amino acid changed in the heavy chain to create a new N-glycosylation site; also called Mutant 1
B3: 602 M8 glycovariant (N-glycosylation site inserted in the light chain) (antibody, mouse IgG2a, kappa)
heavy: B1 heavy
light: B1 light with D4N, Q6T
modifications: inserted N-linked glycosylation site (position shown only in a drawing)
notes: Two amino acids changed in the light chain to create a new N-glycosylation site; also called Mutant 8
B4: F5111 M1 glycovariant (N-glycosylation site inserted in the heavy chain) (antibody, human IgG1, lambda)
heavy: not shown
light: GSNFMLTQPHSVSESPGKTVTISCTRSSGSIASNYVQWYQQRPGSSPTTVIYEDNQRPSGVPDRFSGSIDSSSNSASLTISGLKTEDEADYYCQSYDSSNVVFGGGTKLTVLGQPKAAPSVTLFPPSSEELQANKATLVCLISDFYPGAVTVAWKADSSPVKAGVETTTPSKQSNNKYAASSYLSLTPEQWKSHRSYSCQVTHEGSTVEKTVAPTECS
modifications: inserted N-linked glycosylation site (position shown only in a drawing)
B5: F5111 M2 glycovariant (N-glycosylation site inserted in the heavy chain) (antibody, human IgG1, lambda, V domains shown)
VH: QLQLQESGPGLVKPSQTLSLTCTVSGGSISSGGYYWSWIRQHPGKGLEWIGYIYYSGSTYYNPSLKSRVTISVDTSKNQFSLKLSNVTAADTAVYYCARTPTVTGDWFDPWGRGTLVTVSS
VL: SNFMLTQPHSVSESPGKTVTISCTRSSGSIASNYVQWYQQRPGSSPTTVIYEDNQRPSGVPDRFSGSIDSSSNSASLTISGLKTEDEADYYCQSYDSSNVVFGGGTKLTVLG
modifications: inserted N-linked glycosylation site (position shown only in a drawing)
B6: F5111 M3 glycovariant (N-glycosylation site inserted in the heavy chain) (antibody, human IgG1, lambda)
heavy: not shown
light: B4 light
modifications: inserted N-linked glycosylation site (position shown only in a drawing)
B7: F5111 M4 glycovariant (N-glycosylation site inserted in the light chain) (antibody, human IgG1, lambda, V domains shown)
VH: B5 VH with N86S
VL: B5 VL with D69N
modifications: inserted N-linked glycosylation site (position shown only in a drawing)
B8: F5111 M5 glycovariant (N-glycosylation site inserted in the light chain) (antibody, human IgG1, lambda, V domains shown)
VH: B5 VH with N86S
VL: B5 VL with S70N
modifications: inserted N-linked glycosylation site (position shown only in a drawing)
B9: F5111 antibody (wild type anti-hIL2 antibody, human IgG1, lambda light chain) (antibody)
heavy: not shown
light: B4 light
notes: Expressed in CHO cells, purified on protein G; also called F5111 WT; parent F5111 mAb

target: T1, human Interleukin-2 (human, UniProt P60568 21-153, biotinylated (site not stated) when immobilised on streptavidin biosensors; soluble in the competition studies); assay: BLI (Octet), biotinylated human IL-2 immobilised on streptavidin tip, soluble antibody titrated, normalized equilibrium response
T1 construct: also called IL-2; hIL-2
T1 sequence (P60568 21-153 limits assumed): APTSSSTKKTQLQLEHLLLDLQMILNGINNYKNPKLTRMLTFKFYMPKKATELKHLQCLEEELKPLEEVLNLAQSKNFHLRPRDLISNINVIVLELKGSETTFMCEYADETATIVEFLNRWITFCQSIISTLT
Procedure: Error bars represent s.d.
(§1) Biolayer interferometry binding studies: Binding studies were performed via bio-layer interferometry using an OctetRED96® biolayer interferometry instrument (Sartorius). […] Once baseline measurements were collected in PBSA, binding kinetics were measured by submerging the biosensors in wells containing serial dilutions of the appropriate analytes for 300 s (association) followed by submerging the biosensor in wells containing only PBSA for 500 s (dissociation). […] An irrelevant protein (the monoclonal antibody ipilimumab) was used as a control for nonspecific binding. Tips were regenerated in 0.1 M glycine pH 2.7. Data was processed and kinetic parameters were calculated using the Octet® Data Analysis software version 7.1 (Sartorius), assuming a 1:1 Langmuir binding model.

| Binder | EC50 (read off the curve) [nM] |
| --- | --- |
| B1 | ~3 |

target: T1, human Interleukin-2; assay: BLI, equilibrium KD from titration curve, immobilised human IL-2, soluble antibody
Procedure: as §1, with “model. Equilibrium binding was determined by total response measured after 295 s. Equilibrium titration curve fitting and KD value determination was implemented using GraphPad Prism, assuming all binding interactions to be first order.” for “model.”

| Binder | Kd [nM] |
| --- | --- |
| B1 | 3.2 |
| B2 | 3.2 |
| B3 | 2.3 |

target: T1, human Interleukin-2; assay: as above; remark: another data set of the same source

| Binder | Kd [nM] |
| --- | --- |
| B4 | 7.8 |
| B5 | 9.6 |
| B6 | 8.3 |
| B7 | 9.7 |
| B8 | 9.8 |

target: T1, human Interleukin-2; assay: BLI, equilibrium KD from titration curve, immobilised human IL-2, soluble antibody; Equilibrium KD, not kinetic KD

| Binder | Kd [nM] |
| --- | --- |
| B9 | 6.5 |

target: T1, human Interleukin-2; assay: BLI, kinetic KD, immobilised human IL-2, soluble antibody

| Binder | Kd [nM] |
| --- | --- |
| B9 | 0.63 |
| B4 | 1.1 |
| B5 | 0.76 |
| B6 | 0.55 |
| B7 | 0.5 |
| B8 | 0.82 |

target: T1, human Interleukin-2; assay: BLI (Octet), immobilised human IL-2, soluble antibody, 1:1 Langmuir fit

| Binder | koff [s⁻¹] | kon [M⁻¹ s⁻¹] |
| --- | --- | --- |
| B9 | 0.00022 | 360000 |
| B4 | 0.00038 | 330000 |
| B5 | 0.00021 | 270000 |
| B6 | 0.00017 | 310000 |
| B7 | 0.00014 | 270000 |
| B8 | 0.00023 | 280000 |

target: T1, human Interleukin-2; assay: BLI, kinetic KD, immobilised human IL-2, soluble antibody; remark: another data set of the same source
Procedure: as §1, with “model. Equilibrium binding was determined by total response measured after 295 s. Equilibrium titration curve fitting and KD value determination was implemented using GraphPad Prism, assuming all binding interactions to be first order.” for “model.”

| Binder | Kd [nM] |
| --- | --- |
| B1 | 2.5 |
| B2 | 2.5 |
| B3 | 1.8 |

target: T1, human Interleukin-2; assay: cell-based or functional assay

| Binder | YT+ EC50 (STAT5 phosphorylation, IL-2Rα+ YT-1 cells) [nM] | YT- EC50 (STAT5 phosphorylation, IL-2Rα- YT-1 cells) [nM] |
| --- | --- | --- |
| B1 | 0.18 | 5.2 |
| B2 | 0.16 | 6 |
| B3 | 0.17 | 4.5 |

target: T1, human Interleukin-2; assay: BLI (Octet), biotinylated human IL-2 on streptavidin sensors, soluble antibody, 1:1 Langmuir fit
Procedure: as §1, with “model. Equilibrium binding was determined by total response measured after 295 s. Equilibrium titration curve fitting and KD value determination was implemented using GraphPad Prism, assuming all binding interactions to be first order.” for “model.”

| Binder | koff [s⁻¹] | kon [M⁻¹ s⁻¹] |
| --- | --- | --- |
| B1 | 0.0019 | 780000 |
| B2 | 0.002 | 790000 |
| B3 | 0.0018 | 1e+06 |

target: T1, human Interleukin-2; assay: cell-based or functional assay; remark: another data set of the same source

| Binder | YT+ EC50 (STAT5 phosphorylation, IL-2Rα+ YT-1 cells) [nM] | YT- EC50 (STAT5 phosphorylation, IL-2Rα- YT-1 cells) [nM] |
| --- | --- | --- |
| B9 | 0.15 | 0.66 |
| B4 | 0.043 | 0.89 |
| B5 | 0.098 | 0.44 |
| B6 | 0.089 | 0.39 |
| B7 | 0.17 | 0.52 |
| B8 | 0.039 | 0.79 |
